The values that follow come from the DeepSol protein solubility set.

A short description of this data set: soluble on expression in E. coli; label from the status in PepcDB or PDB records.
Turning to “MNALIVPQWPLPKGVAACSSTRIGGVSLSPYDSLNLGAHCGDNPEHVEENRKRLFAAGNLPSKPVWLEQVHGKNVLRLTGEPYASKRADASYSNTPGTVCAVMTADCLPVLFCNREGTEVAAAHAGWRGLCEGVLEETVTCFADKPENIIAWLGPAIGPAAFEVGPEVRDAFLAKDAQADSAFLPHGEKFLADIYQLARQRLANTGVEHVYGGDRCTFSESETFFSYRRDKTTGRMASFIWLI”, the “soluble on expression in E. coli” value is given as “soluble”.

Take “MNALPSSAEFSRAVGGDAVSREAVIRIEHLSKTFSDAAGPVLDDVSLTIRRGEIHGIIGRSGAGKSTLVRCINLLERPSAGRVIVSGREITSLRGRALRNARRDIGMIFQHFNVLSSHTVAGNVALPFKVAGLPRAEIARRIPPLLELVGLAHKADAYPSELSGGQKQRVGIARALALDPSVLLCDEATSALDPETTDQILALLRDINRKLGLTIVLITHEMHVVRDIATRVAVLDHGRVVEEGATFDVLAFPKSAVARSFLSGLVAHELPPPVAAQLLPAAVPGSDPVLRIVFTGTAAHDPIVADLVSVFGIQPNILHGRIDYVGDRPLGVLTLVAGGAGEKLPAVLSHLSSLGLVVEVIGHAVRSAVARRHSAARLEHHHHHH”: the “soluble on expression in E. coli” value is on record as “not soluble”.

“MNCIIAQSGGPTSVINASVYGLVKANKKLNLYENVYGGLNGIEGILNKKIINLSDLDELQLERFKNSPASGLGSCRYKLKPLSESEDEYLKLLDILNSLNIKAFFYVGGNDSMDTTAKLNAFAKAKNIDIKFFGIPKTIDNDLMHTDHTPGFGSAAKFISTAVLETYLDSKVYTNNGIFIIETMGRDTGWLAASGALATINGNKCADLVYLPERAFSVQSFLTDVARIFKEKKHVYIVASEGLKDENGKFLTETAPNDDSFGHAQLGGVGAYLKNLIIQASITHRVKSLELNTLQRCSMHASSKIDVNEAVMVGQAALEASINSEGGYMVAIRRDSSFPYKSSTFLIEADKIANNIKYFPSEWINEEGNNITEEGLLYLKPLISDFEDRDSLPLYHSFVLLEHHHHHH”: the “soluble on expression in E. coli” value is recorded as “not soluble”.

“MNDEIISNLHMLSAVHRSLPRDARKDYLSRVRGKVEHLYKAIQGNKKPEINFEVSLEEAKLADKYLKDAKKVRIGNTMSDRDEYLGLLEIADNDERKCVFIHVSIGGIEEGCIVIQLFNDIVPRTAQNFESWCTGEKRGKYGEPLHLKECEIKMILPGSVIGFGDFEENCEYFDDEKSKENHCKNVLSMNIDKSENSSAPLFNMELSDGVDRAGKAIVFGKVVMGNRVIEKVLLAGSRDGIPEQTVKISDCGEMFRGGHSHF”: the “soluble on expression in E. coli” value is on record as “not soluble”.

As to “MNDETPRCPYNSLYKPLNLIKSKPDGCFKHNGQCTYGKNLVESVDDGNSRTPYNSIYEPLSLNKPKPDGRSSNGKKPVDNEYVNLPVLSEEQKLADKLAAKLRKLEVKEPKSKKRGSKERKKKKSEPVESTYESLATIEGSTNYSGPVTTESLESNVKFHHASQTAYIGVYSSADAEAQVKNRGEFALYHLFEVGNGIDHLTATLPLMLVYYTTTKKHRHYPVRESGGKGMVQYSVDCGYPIVRKHYSLNQLVQYYKSFGSIQMKQEDTCSEEFSWWLE”, the “soluble on expression in E. coli” value was “not soluble”.

On to “MNDRSSRRRTMKDDETFEISIPFDEAPHLDPQIFYSLSPSRRNFEEPPEAASSALALMNSVKTQLHMALERNSWLQKRIEDLEEERDFLRCQLDKFISSARMEAEDHCRMKPGPRRMEGDSRGGAGGEASDPESAASSLSGASEEGSASERRRQKQKGGASRRRFGKPKARERQRVKDADGVLCRYKKILGTFQKLKSMSRAFEHHRVDRNTVALTTPIAELLIVAPEKLAEVGEFDPSKERLLEYSRRCFLALDDETLKKVQALKKSKLLLPITYRFKR”, for which the “soluble on expression in E. coli” value was “soluble”.

With “MNDRYTNVKIGLEIHVQLSNAGSKLFCGCDSEYRGYKPNTNVCPVCLGLPGALPVPSRRPIVLAIAASMALGCRVPGTVVFTRKHYFYPDLPKNYQITQFEKAGGAPVCMGGVLEYLNTDSWRWERARIRRINLEEDPGKTYYEGSILTSRYALVDYNRSGVPLLEIVTEPDIPSPRHARMLIDYLLLTLEYIGATNPRLEGVFRVDANISIEGGERVEVKNIGSTQDVEKALKFEISRQRLIVERGGKVERETRHWDAERGMTKPLRLKEEEADYLYFPDPDLPPVEITEDMLAEAEKLASKTPGTIYREIESMGVRREIAWSITSTLPAARLFLEAVKLGADPRIAARLVGVDLKGELKEMGKDLYSPNNWPPPQSIAILSNLVARGDYTYDSIKGLVVPKLAANPGSDVKSLLPEKVKDIERLVEEVLNREKRAVQDYLAGKKKALNYLVGQVMRAAKGRALDPRQAREILLRRLSTVKEEDR”, the “soluble on expression in E. coli” value is on record as “soluble”.

As for “MNDVSKASLPKAIFLMGPTASGKTALAIELRKVLPVELISVDSALIYRGMDIGTAKPNADELKAAPHRLLDIRDPSQAYSAADFRRDALAQMAEITAAGRIPLLVGGTMLYFKALLEGLSPLPSADPEVRSRIEQQAAELGWEALHQQLQEIDPVAAARIHPNDPQRLSRALEVFFISGKTLTELTQTSGDALPYQVHQFAIAPASRELLHQRIELRFHQMLASGFEAEVRALFARGDLHTDLPSIRCVGYRQMWSYIEGEISYDEMVYRGVCATRQLAKRQMTWLRGWEGVRWLDSENPDRARKEVLQVVGAIADMAGDPLEHHHHHH”, the “soluble on expression in E. coli” value is recorded as “not soluble”.

For “MNDYAAMPSEDREVGALSLPPHSMEAEQSVLGGLMLENPAWDRIADVVSGEDFYRHEHRLIFRSIAKLINESRPADVITVQEDLQRNEELEAAGGFEYLITLAQNTPSAANIRRYAEIVRERSIMRQLAEVGTEIARSAYNPQGRDAGQLLDEAENKVFQIAESTAKSKQGFLEMPDLLKEVVQRIDMLYSRDNPDEVTGVPTGFIDLDKKTSGLQPGDLIIVAGRPSMGKTAFSINIAEHVAVEGRLPVAVFSMEMGGAQLVMRMLGSVGRLDQSVLKTGRLEDEHWGRLNEAVVKLSDAPVYIDETPGLTALELRARARRLARQFNNKLGLIVIDYLQLMAGSGRSDNRASELGEISRSLKALAKELQVPIIALSQLSRTVESRTDKRPMMSDLRESGAIEQDADLIMFMYRDEYYNQDSPMKGLAECIIGKHRNGPVGKIFLTWTGQFTKFDNAAYIPEEAKIED”, the “soluble on expression in E. coli” value is “not soluble”.

Take “MNEKNRQLPAFTPRNRRTHPISAERKQLGVDDIVDHCMIYVDGRAIQGWFDYGSGLKRVKDFIASGHKAFMWLSLEEPSEQHMMQVADDLHIHELIVEDAVTAHQRPKVERYDDQIFMVVRSVFYRDHETVDDANEIIKTGEVQMLIGEHFIITIRHRTPMPDLTMRLDDPQEISSYGPMIIAWAWADYLVDGYLRIVNILAEEVDELEEEVFTPGSSFNIEHIYMIKREILEMRHAIDPLAPALRMLVTQHKDMIAKQLRSYLRDVLDHEMVAKDYVANFDERLSSLIDAGVAKISLQQNSDMRAIS”: the “soluble on expression in E. coli” value was “not soluble”.

Regarding “MNELDGIKQFTTVVADSGDIESIRHYHPQDATTNPSLLLKAAGLSQYEHLIDDAIAWGKKNGKTQEQQVVAACDKLAVNFGAEILKIVPGRVSTEVDARLSFDKEKSIEKARHLVDLYQQQGVEKSRILIKLASTWEGIRAAEELEKEGINCNLTLLFSFAQARACAEAGVFLISPFVGRIYDWYQARKPMDPYVVEEDPGVKSVRNIYDYYKQHHYETIVMGASFRRTEQILALTGCDRLTIAPNLLKELQEKVSPVVRKLIPPSQTFPRPAPMSEAEFRWEHNQDAMAVEKLSEGIRLFAVDQRKLEDLLAAKL”, the “soluble on expression in E. coli” value was “soluble”.

On to “MNEQPNNENITQSASRDLQIIEDDAFSYEGYQVVRGEFFAHTYEPSFTFNANKVSVNTACIKKLPQTDFVQILVNPDEKKLAVRPCQEDEKDSFRWCSATKKRSPRQITCRIFFAKVISLMEWNPSYRYKLLGKLIRSDNELLFVFDLTTPEIYVRAEKEDGKIKTSRTPTYPAEWQNQFGVPVEEHQSNLQINMFDGYAVFGISENTQPSEEAQNTSVPPKEETHYEQSTLFPADPMHLEHHHHHH”, for which the “soluble on expression in E. coli” value is “soluble”.

“MNETTNEQEVLLLRRKLDLLLRTGKLLMESAADTNRIERNMKRVAAYLGIPEEKLHIDIRWTMLMVNVSDEKHSFSKFQKCEKHGINMEAISKISKLSWRAIEQDYSLDKYEEELEKIARQERNYTPYVVAICTGFACGGFCK”: the “soluble on expression in E. coli” value is “not soluble”.

For “MNFADIFSKIRRQQPSVKEAPNHWVKCQSCHALMYYKEIESCFNVCPKCNYHMRISADERIKLLSDEGSFIEYDANLEAIDPLKFVDSKSYKKRLSEGESKTGRKSSVISGECEINGLKTQLVVFDFSFMGGSLGSVEGEKIVRAIQRAITSKTSLVIVSASGGARMQESTYSLMQMSKTSAALKLLSKEKLPYISILTDPTMGGVSASFAWLGDLIIAEPEALVGFAGARVIKQTIGADLPEGFQKAEFLLEHGLIDAIVERGEQKQYLSDVLKFFSGKLEHHHHHH”, the “soluble on expression in E. coli” value is “not soluble”.

Turning to “MNFAQVKDYLVDLQNRIVTGLEQVDGQSFRRDTWDRPEGGGGTSCVIEEGNVLERGGVNFSHVFGKGLPASATAARPELAGRAFEAAGVSLVLHPRNPYAPTVHMNVRFFAATKEGAEPVWWFGGGMDLTPYYGFEEDAVHFHQACKDALQPSGEEYYPRFKKWCDEYFYLKHRKEPRGIGGVFFDDLNQPDFATCFNLTRSVGDHFLAAYVPILQKRRDLPYGERERDFQAYRRGRYVEFNLVWDRGTLFGLQSGGRTESILMSLPPVVKWRYDWSPAAGSPEAKLYTDFLTGRDWLPLGLEHHHHHH”, the “soluble on expression in E. coli” value is “soluble”.

For the sequence “MNFPISTIRIGGWVVVAKNPDDIVAKFYFAKKKLIWEFLFGEPETNTLRLKRKIEIQWNDVSSFEESISSRDETGILKIELKKRPTFFIETNPQAGKHTQWKQLDHDFTGDHASNYRRHTLHFPPGVLQKNLEKLVTDSFWSKLYEVPFPVHESRYFDSGFENNSSRNSHSHTVGFNVNNGPQHHFSQGIGGVGVGEGNFSMANGGWQRNSYSPVNSLNYNTANEFFGMQATPPSSQVVNEHYNTQNDFTGSQFGYHMNQDEIQKILESQAYAVPDTQTKLMSSAMNNVPKYPQAGSCLESMLFWYEHRRRFQQ”, the “soluble on expression in E. coli” value was “soluble”.

Turning to “MNGFARRTEQKKQAIKQAVLELLQKIRDPREVTIQEIAKQAHVSPVTIYNYFGSKENLIRETLLDDVVRQVDEYEAFLKQAGSFEEKVKHTIFQEVKLFKEGWTDVMLRWMQEDEEFRRSIELLNETRVLPLVVDMIREAQKKGEVDPRLSIEALLLYLNGWRELSEKIPASLYNERLVEDMVRLFFYGIKGETR”, the “soluble on expression in E. coli” value is given as “not soluble”.

In the case of “MNGMCWIASYPKAGGHWLRCMLTSYVTGEPVETWPGIQAGVPHLEGLLRDGEAPSADPDEQVLLATHFTADRPVLRFYRESTAKVVCLIRNPRDAMLSLMRMKGIPPEDVEACRKIAETFIADEGFSSVRIWAGEGSWPENIRSWTDSVHESFPNAAVLAVRYEDLRKDPEGELWKVVDFLELGGRDGVADAVANCTLERMREMEERSKLLGLETTGLMTRGGKQLPFVGKGGQRKSLKFMGDDIEKAYADLLHGETDFAHYARLYGYAE”, the “soluble on expression in E. coli” value was “soluble”.

In the case of “MNGPEVLRFAANLYRVPVEGGYFLVDAGLPWEARRLLSLLQEPPRLLFLTHHHLDHAGGARALWERFRVPVLAHPQEWAYLTKRKPRPPLPLPLLGKGARQLGADDPGGGPRPRGGRGWRSSASGWSTSRGTPLGQVGLFREGVLLAGNALRGRGLPPRFINEDHALARRTVRKILELGVKRVYLGHGGPLSGEEVAAIARRLGV”, the “soluble on expression in E. coli” value is on record as “soluble”.

On to “MNGWNFQELKETPSQTGGPYVHIGLLPKQANIEVFEHNLDNNLVQDNTQGQRIRLEGQVFDGLSLPLRDVLIEIWQADTNGVYPSQADTQGKQVDPNFLGWGRTGADFGTGFWSFNTIKPGAVPGRKGSTQAPHISLIIFARGINIGLHTRVYFDDEAEANAKDPVLNSIEWATRRQTLVAKREERDGEVVYRFDIRIQGENETVFFDI”, for which the “soluble on expression in E. coli” value is on record as “soluble”.
